Measurements from publication PMC7545742, “A Toolbox for Site-Specific Labeling of RecQ Helicase With a Single Fluorophore Used in the Single-Molecule Assay”.

Tests used:
wild-type RecQ helicase = wild-type RecQ helicase (Escherichia coli, UniProt P15043 1-609); test: smFRET; EFRET 0.92 to 0.54; bound dwell time 4.47 +/- 0.23 s; smFRET on DNA with biotinylated strand in reaction chamber; 5 nM RecQ-Cy5 bound 2 min, then washed; reaction buffer composition, pH and temperature not in the material; conditions: protein: recombinant; label: Cy3 3' of strand 1; internal Cy5 after nt 4 and biotin 3' of strand 2; 3' overhang 10 nt, 16 bp stem; one A:G mismatch (strand 1 nt 8)
[1] = biological target: T1, RecQ-Cy5 (sortase A ligation of RecQ516-LPETG and Cy5-GGG-HRDC) (Escherichia coli, UniProt P15043 1-516+=LPETGGG+524-609+=VD, E609C;internal_change); test: smFRET; 5 nM RecQ-Cy5, free protein washed off; EFRET 0 to ~0.5; duration 5.17 +/- 0.82 s; smFRET on DNA with biotinylated strand in reaction chamber; 5 nM RecQ-Cy5 bound 2 min, then washed; reaction buffer composition, pH and temperature not in the material; conditions: protein: recombinant; tags: Cy5-maleimide at C610; label: Cy3 3' of strand 1; biotin 3' of strand 2; 3' overhang 10 nt, 18 bp stem; one A:G mismatch (strand 1 nt 8)
[2] = biological target: T1, RecQ-Cy5 (sortase A ligation of …); test: smFRET; 5 nM RecQ-Cy5, free protein washed off; EFRET 0 to ~0.84; duration 4.65 +/- 0.17 s; HRDC contacts 3' end; smFRET on DNA with biotinylated strand in reaction chamber; 5 nM RecQ-Cy5 bound 2 min, then washed; reaction buffer composition, pH and temperature not in the material; conditions: protein: recombinant; tags: Cy5-maleimide at C610; label: Cy3 3' of strand 1; biotin 3' of strand 2; 3' overhang 15 nt, 18 bp stem; one A:G mismatch (strand 1 nt 8)
[3] = biological target: T1, RecQ-Cy5 (sortase A ligation of …); test: smFRET; RecQ-Cy5, same conditions (5 nM); EFRET 0 to ~0.92; duration 5.19 +/- 0.28 s; HRDC contacts 5' end; smFRET on DNA with biotinylated strand in reaction chamber; 5 nM RecQ-Cy5 bound 2 min, then washed; reaction buffer composition, pH and temperature not in the material; conditions: protein: recombinant; tags: Cy5-maleimide at C610; label: Cy3 5' of strand 1; biotin 5' of strand 2; fork 1:2, 17 bp stem, 5' arm 7 nt (strand 1), 3' arm 10 nt (strand 2)

B1: 16 bp with 3' 10-nt overhang, Cy3/Cy5 (mixed)
DNA 1: AATCCGTAGAGCAGAGGTGTGTGTGG
DNA 2: CTCTGCTCGACGGATT
modifications: none
binding result (wild-type RecQ helicase): binds

B2: 3' 10-nt overhang DNA, Cy3 (mixed)
DNA 1: AATCCGTAGAGCAGAGGTGTGTGTGGTG
DNA 2: ACCTCTGCTCGACGGATT
modifications: none
binding result [1]: binds

B3: 3' 15-nt overhang DNA, Cy3 (mixed)
DNA 1: AATCCGTAGAGCAGAGGTGTGTGTGGTGTTTTT
DNA 2: ACCTCTGCTCGACGGATT
modifications: none
binding result [2]: binds

B4: fork DNA, 10-nt 3' overhang and 7-nt 5' overhang (mixed)
DNA 1: TTTTTTTATGTATGACAAGGAAGG
DNA 2: CCTTCCTTGTCATACATAAATTTTTTT
modifications: none
binding result [3]: binds
